From patent publication US20180312877A1, “METHOD FOR ISOMERIZING DOUBLE BONDS” (Research Foundation of the City University of New York, priority 2015, published 2018)

Test: Z-ISO in vitro enzyme assay with substrate-containing liposomes
Format: biochemical, Zea mays
Procedure: Z-ISO in vitro enzyme assay. Preparation of substrate-containing liposomes. To produce the substrate, 9,15,9′-tri-cis-ζ-carotene (tri) from E. coli BL21(DE3) cultures, 400 ml of Luria-Bertani medium (I % tryptone, 0.5% yeast extract and 1% NaCl) containing chloramphenicol (34 μg per ml (Sigma-Aldrich)) was inoculated with 8 ml of overnight culture containing pACCRT-EBP (no. 150). Cultures were grown in the dark at 37° C., with shaking at 160 r.p.m. for 8 h before induction with 10 mM IPTG. Cultures were further incubated at 28° C., with shaking at 100 r.p.m. for 40 h and for an additional 2 d without shaking. Cells were centrifuged at 2,600 g, and pellets were resuspended in a total of 40 ml of methanol, distributed in four conical tubes with equal volumes of extract and then sonicated twice on ice (30 s each, at 60% power) with a Vibra Cell VC600 sonicator equipped with a tapered 3-mm microtip (Sonics & Materials). Extracts were centrifuged at 2,600 g for 10 min, and supernatants were transferred to 15-ml conical tubes and evaporated under nitrogen gas in the dark. Dried samples were resolubilized in 300 μl of methanol, transferred to 1.5-ml microfuge tubes, frozen at −80° C. for 1 h and centrifuged at 16,000 g at 4° C. Extractions were then combined, and 1 ml was used to prepare liposomes. Cells also accumulate […] (di), and therefore enzymatic conversion is measured as the ratio of di to tri isomers. For preparation of liposomes, 1 ml of substrate extract (58 μM, estimated by spectroscopy, with the molar extinction coefficient for ζ-carotene, ε400, equal to 138,000) was mixed with 35 μl of soybean L-α-phosphatidylcholine (Sigma-Aldrich, 99% pure) (20 mg per ml in methanol). The mixture was dried under N2, and this was followed by addition of 800 μl sonication buffer (25 mM HEPES, pH 7.8, 100 mM NaCl and 10% glycerol) and sonication on ice with a Vibra Cell VC600 sonicator equipped with a 3-mm tapered microtip (Sonics & Materials) for 1 min, at intervals of 10 s at 20% power.
In vitro reactions. […]

B1: Z-ISO: 15-cis-ζ-carotene isomerase from Zea mays (SEQ ID NO: 12), heme b enzyme, purified as TEV-cleavable MBP fusion (protein)
chain: MASQLRLHLAATPPLLPHRRPHLPRPLCPTLNPIRAPLPPLSRVLSHARPARAVGGGIEPKEGVVAEGDESGGGPVLVGEDSAAFELKDQSVASWAYFAGILGAVLVALNVLWIDPSTGVGTKFLDAVASVSDSHEVVMLLLTIIFAVVHSGMASLRESGEKIVGERVYRVLFAGISLPLAVTTIVYFINHRYDGTQLWQVQGITGIHELLWFSSFISFFFLYPSTFNLLEVAAVDKPKLHMWETGIMRITRHPQMVGQVIWCLAHTLWIGNSVAVAASVGLISHHLFGAWNGDRRLLSRYGEAFEVLKKRTSVMPFAAIIDGRQKLPKDYHKEFFRLPYVAITMLTLGAYFAHPLMQASSYQLPW
modifications: MBP fusion, TEV-cleavable; Zea mays
- conversion of substrate to product (Z-ISO pretreated with dithionite, 10 mM final (reducing conditions)): Conversion of the substrate to product occurred
- conversion of substrate to product (as-purified enzyme (considered to be oxidized)): not functional
- conversion of substrate to product (heat-denatured Z-ISO): not functional
